Assay [1] has as its target T1, full-length human Nectin4 with C-terminal flag and Myc tags on CHO cells (human, UniProt Q96NY8 32-510).
T1 construct: whole, on cells; also called Nectin4/CHO; CHO/Nectin4; not shown: C-terminal flag and Myc tags of pCMV6-Entry vector
T1 sequence (looked up): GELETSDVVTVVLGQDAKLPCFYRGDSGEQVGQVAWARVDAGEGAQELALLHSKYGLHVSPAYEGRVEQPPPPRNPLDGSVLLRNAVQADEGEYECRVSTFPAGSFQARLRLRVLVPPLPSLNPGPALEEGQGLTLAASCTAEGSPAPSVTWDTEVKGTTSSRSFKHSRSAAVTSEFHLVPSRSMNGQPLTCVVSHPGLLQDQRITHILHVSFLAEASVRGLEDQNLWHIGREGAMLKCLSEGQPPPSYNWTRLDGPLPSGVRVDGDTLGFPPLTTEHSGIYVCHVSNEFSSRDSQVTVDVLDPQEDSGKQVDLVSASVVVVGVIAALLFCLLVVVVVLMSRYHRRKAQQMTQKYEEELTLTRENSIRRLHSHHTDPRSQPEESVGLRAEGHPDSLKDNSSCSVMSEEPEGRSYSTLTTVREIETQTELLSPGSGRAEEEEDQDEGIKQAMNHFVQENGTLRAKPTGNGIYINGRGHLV
Description: flow cytometry, IgG on Nectin4/CHO cells, anti-hFc Alexa fluor 647. As for the experimental part:
200 nM of purified anti-Nectin4 IgG antibodies were diluted in full medium and incubated with Nectin4/CHO and CHO cells in 96 wells plate on ice for 1 hour. Cells were spun down at 1200 rpm for 5 minutes at 4° C. to remove primary antibodies. Cells were then washed once with 200 uL of full medium per well. Samples were detected with anti-hFc Alexa fluor 647 by adding 100 uL of diluted secondary antibody and incubated at 4° C. for 30 minutes in the dark. Samples were spun down at 1200 rpm for 5 minutes at 4° C. and washed twice with 200 uL of 1×PBS per well. Reconstituted samples in 200 uL of 1×PBS and read on Attune NxT cytometer. Analysis was done by Attune NxT software plotting the overlay histogram of […] proteins binding onto both negative and target cell lines.
(In general: Flow cytometry measures light scatter and fluorescence of single cells or particles in a stream.)

Assay [2] deals with T2, human Nectin4-HIS tagged recombinant protein (human, UniProt Q96NY8 32-349).
T2 construct: also called hNectin4-HIS; Nectin4 HIS tagged protein; not shown: HIS tag
T2 sequence (looked up): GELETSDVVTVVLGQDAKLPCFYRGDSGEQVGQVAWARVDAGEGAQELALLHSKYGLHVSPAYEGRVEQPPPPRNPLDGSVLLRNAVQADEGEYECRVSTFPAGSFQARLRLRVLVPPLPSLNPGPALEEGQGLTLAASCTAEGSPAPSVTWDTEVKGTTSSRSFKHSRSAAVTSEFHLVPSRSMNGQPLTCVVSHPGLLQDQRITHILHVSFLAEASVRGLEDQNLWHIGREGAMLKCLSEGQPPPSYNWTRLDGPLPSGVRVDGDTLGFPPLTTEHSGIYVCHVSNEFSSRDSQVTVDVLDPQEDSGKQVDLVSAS
Description: ELISA, coated human Nectin4-HIS, IgG titrated, anti-hFc HRP. How it is done:
An ELISA assay was developed to determine the EC₅₀ of exemplary anti-Nectin4 IgG antibodies. Briefly, 384 well plate was immobilized with human Nectin4-HIS tagged recombinant protein at final concentration of 2 ug/mL in 1×PBS in total volume of 25 uL per well. The plate was incubated overnight at 4° C. followed by blocking with 80 uL of superblock per well for 1 hour. Titration of purified anti-Nectin4 IgG starting at 200 nM 2-fold serial dilution, 25 uL was added to human Nectin4 immobilized wells and incubated for 1 hour with shaking. The Nectin4 binding was detected by adding 25 uL of anti-hFc HRP diluted at 1:5000 in 1×PBST. In between each step, the plate was washed 3 times with 1×PBST in a plate washer. The plate was then developed with 20 ul of TMB substrate for 5 mins and stopped by adding 20 ul of 2N sulfuric acid. The plate was read at OD450 nm Biotek plate reader and then plotted in Prism 8.1 software.
On the technique in general: ELISA stands for enzyme-linked immunosorbent assay.

Assay [3] has as its target T3, CD3 on Jurkat cells (UniProt P07766 23-207, limits assumed). Description: cell-based or functional assay.
Assay [4] concerns the target T2, human Nectin4-HIS tagged recombinant …. Description: ELISA, coated human Nectin4-HIS, complex titrated, anti-hFc HRP. As for the experimental part:
ELISA was performed to determine the EC₅₀ of anti-Nectin4/CD3/IL2 protein complexes. Briefly, 384 well plate was immobilized with human Nectin4-HIS tagged recombinant protein at final concentration of 2 ug/mL in 1×PBS in total volume of 25 uL per well. The plate was incubated overnight at 4° C. followed by blocking with 80 uL of superblock per well for 1 hour. […] The Nectin4 binding was detected by adding 25 uL of anti-hFc HRP diluted at 1:10000 in 1×PBST. In between each step, the plate was washed 3 times with […] in a plate washer. The plate was then developed with 20 ul of TMB substrate for 5 mins and stopped by adding 20 ul of 2N sulfuric acid. The plate was read at OD450 nm Biotek plate reader and then plotted in Prism 8.1 software. Similar SPR methods were applied to measure the binding of the protein complexes to Nectin4, CD3E and IL2 receptors.

Assay [5] addresses T3, CD3 on Jurkat cells. Description: flow cytometry on Jurkat cells. As for the experimental part: Jurkat cells were plated at 100,000 cells/well in a 96-well plate with 50 μL of full media. Anti-Nectin4/CD3 antibodies were 3-fold serial titrated from 20 nM. 50 μL was added to the cells and incubated for 1 hours at room temperature with shaking. Samples were washed one time with flow buffer. […] Samples were washed once with flow buffer. Samples were stained with 100 uL Zombie Fixable Viability Dyes at 1:800 dilution per well and incubated in dark at room temperature for 30 mins. Samples were spun down at 1300 rpm for 5 minutes and washed once with 200 uL flow buffer. Reconstituted samples in 200 uL of flow buffer and read on Attune NxT cytometer. EC50 values for CD3 binding were calculated using Prism 8.1 software.
Similar methods of above mentioned were used to measure the binding activities of anti-Nectin4/CD3/IL-2 complexes to CHO/Nectin4 and Jurkat cells, respectively.

In assay [6] the target is T2, human Nectin4-HIS tagged recombinant …. Description: ELISA, coated Nectin4 HIS tagged protein, bispecific titrated, anti-Human HRP. As for the experimental part:
An ELISA assay was developed to determine the EC₅₀ of anti-Nectin4/CD3 bispecific antibodies. Briefly, 384 well plate was immobilized with human CD3E or Nectin4 HIS tagged protein at final concentration of 2 ug/mL in 1×PBS in total volume of 25 uL per well. The plate was incubated overnight at 4° C. followed by blocking with 80 uL of superblock per well for 1 hour. Purified anti-Nectin4/CD3 was 3-fold serial titrated from 100 nM. 25 uL was added to human Nectin4/CD3 immobilized wells and incubated for 1 hour with shaking. The CD3E or Nectin4 binding was detected by adding 25 uL of anti-Human HRP diluted at 1:10000 in 1×PBST. In between each step, the plate was washed 3 times with […] in a plate washer. The plate was then developed with 20 ul of TMB substrate for 5 mins and stopped by adding 20 ul of 2N sulfuric acid. The plate was read at OD450 nm Biotek plate reader and then plotted in Prism 8.1 software to calculate EC50.

Assay [7] deals with T1, full-length human Nectin4 with …. Description: flow cytometry on CHO/Nectin4 cells. How it is done: Nectin4/CHO Nectin4 cells were plated at 100,000 cells/well in a 96-well plate in 50 μL of full media. Cells were rested 1 hour at 37° C. Anti-Nectin4/CD3 was 3-fold serial titrated from 50 nM. 50 μL was added to the cells and incubated for 1 hours with shaking. Samples were washed one time with flow buffer. […] Samples were washed once with flow buffer. Samples were stained with 100 uL Zombie Fixable Viability Dyes (1:800 dilution) per well and incubated in dark at room temperature for 30 mins. Samples were spun down at 1200 rpm for 5 minutes and washed once with 200 uL flow buffer. Reconstituted samples in 200 uL of flow buffer and read on Attune NxT cytometer. EC₅₀ values for Nectin4 Binding were determined using Prism software.

Residue numbers refer to the chain shown, from its start. Names and notes keep the numbering of the source.

T3 sequence (P07766 23-207 limits assumed): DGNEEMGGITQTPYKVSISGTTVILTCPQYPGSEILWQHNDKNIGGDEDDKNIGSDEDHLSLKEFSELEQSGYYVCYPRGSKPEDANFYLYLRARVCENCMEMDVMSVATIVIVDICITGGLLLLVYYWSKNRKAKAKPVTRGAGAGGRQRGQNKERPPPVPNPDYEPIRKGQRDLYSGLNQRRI

B1: 2020EP47-F02 IgG (EP544/EP545) (antibody, V domains shown)
VH: QVQLQQWGAGLLKPSETLSLTCAVYGGSFSGYYWSWIRQPPGKGLEWIGEINHSGSTNYNPSLKSRVTISVDTSKNQFSLKLSSVTAADTAVYYCARGWYLGFDYWGQGTLVTVSS
VL: QSVLTQPRSVSGSPGQSVTISCTGTSRDVGGYDYVSWYQQYPGKAPKLMISGVSERPSGVPDRFTGSRSANTASLTISGLQTDDEANYYCCSYAGSFTWVFGDGTKLTVLG
notes: Human IgG1 with lambda light chain; entries without signal peptide used
On to B1, for which the EC50 – broadly, the midpoint of the concentration-response curve – in assay [1] came out at 0.125 nM; in assay [2], 0.119 nM.

B2: EP369/371/289 anti-Nectin4/CD3/IL2 protein complex (bispecific antibody)
chain: not shown
heavy: not shown
light: QAVVTQPPSVSVAPGKTATITCGGNNIGSKGVHWYQQKPGQAPVLVIYYDTDRPSGIPERLSGSNSGNTATLTISRVEAGDEADYYCQVWDSSSDHPVFGGGTKLTVLGQPKANPTVTLFPPSSEELQANKATLVCLISDFYPGAVTVAWKADGSPVKAGVETTKPSKQSNNKYAASSYLSLTPEQWKSHRSYSCQVTHEGSTVEKTVAPTECS
notes: Anti-CD3 sp34 scFv-Fc knob (EP369), B09 heavy chain hole with wild-type IL2 at the C-terminus (EP371), light chain EP289; also called EP369/EP371/EP289
Consider B2, for which the “Jurkat Cell Activation Activity, NFAT reporter EC50” value in assay [3] came to 0.009 nM. The EC50 was found to be 0.016 nM in assay [4] and 1.65 nM in assay [5].

B3: EP499/EP378/EP289 anti-Nectin4/CD3 bispecific antibody (bispecific antibody)
heavy 1: EVQLVQSGAEVKKPGASVKVSCKASGYTFTGYYMHWVRQAPGQGLEWMGRINPNSGGTNYAQKFQGRVTMTRDTSISTAYMELSGLRSDDTAVYFCARVTYNIGWYIDYWGQGTLVTVSSASTKGPSVFPLAPSSKSTSGGTAALGCLVKDYFPEPVTVSWNSGALTSGVHTFPAVLQSSGLYSLSSVVTVPSSSLGTQTYICNVNHKPSNTKVDKKVEPKSCDGGGGSGGGGSEVQLVESGGGLVQPGGSLRLSCAASGFTFNTYAMNWVRQAPGKGLEWVARIRSKYNNYATYYAASVKGRFTISRDDSKNSLFLQMNSLKTEDTAVYYCVRHGNFGNSYVSWFAYWGQGTLVTVSSGGGGSGGGGSGGGGSGGGGSQTVVTQEPSLTVSPGGTVTLTCRSSTGAVTTSNYANWVQEKPDHLFTGLIGGTNKRAPGVPARFSGSLLGGKAALTLSGVQPEDEAIYFCALWYSNLWVFGSGTKVTVLEPKSCDKTHTCPPCPAPEAAGGPSVFLFPPKPKDTLMISRTPEVTCVVVDVSHEDPEVKFNWYVDGVEVHNAKTKPREEQYNSTYRVVSVLTVLHQDWLNGKEYKCKVSNKALGAPIEKTISKAKGQPREPQVCTLPPSRDELTKNQVSLSCAVKGFYPSDIAVEWESNGQPENNYKTTPPVLDSDGSFKLVSKLTVDKSRWQQGNVFSCSVMHEALHNHYTQKSLSLSPGK
heavy 2: not shown
light: B2 light
notes: Bivalent for Nectin4; EP499 carries a humanized SP34 scFv between CH1 and hinge, hole; also called EP499/378/289
For the molecule B3, the EC50 in assay [6] was found to be 0.025 nM; in assay [7], 0.235 nM.

B4: EP697/EP378/EP289 anti-Nectin4/CD3 bispecific antibody (bispecific antibody)
heavy 1: B3 heavy 1 with Y289A, N291A, Y342A, T381A, R402A, I466E, F468Y, S481G, V485L
heavy 2: not shown
light: B2 light
notes: EP697: two residue mutations within HCDR2 and a single point mutation within HCDR3 of the anti-CD3 scFv of EP500; also called EP697/378/289
B4: the binding result in assay [5] is listed as “no binding”.

B5: EP369/379/289 anti-Nectin4/CD3/IL2 protein complex (bispecific antibody)
chain: not shown
heavy: EVQLVQSGAEVKKPGASVKVSCKASGYTFTGYYMHWVRQAPGQGLEWMGRINPNSGGTNYAQKFQGRVTMTRDTSISTAYMELSGLRSDDTAVYFCARVTYNIGWYIDYWGQGTLVTVSSASTKGPSVFPLAPSSKSTSGGTAALGCLVKDYFPEPVTVSWNSGALTSGVHTFPAVLQSSGLYSLSSVVTVPSSSLGTQTYICNVNHKPSNTKVDKKVEPKSCDKTHTCPPCPAPEAAGGPSVFLFPPKPKDTLMISRTPEVTCVVVDVSHEDPEVKFNWYVDGVEVHNAKTKPREEQYNSTYRVVSVLTVLHQDWLNGKEYKCKVSNKALGAPIEKTISKAKGQPREPQVCTLPPSRDELTKNQVSLSCAVKGFYPSDIAVEWESNGQPENNYKTTPPVLDSDGSFKLVSKLTVDKSRWQQGNVFSCSVMHEALHNHYTQKSLSLSPGKGGGGSGGGGSGGGGSGGGGSAPASSSTKKTQLQLEHLLLDLQMILNGINNYKNPLLTDMLTRKFYMPKKATELKHLQCLEEELKPLEEVLNLAQSKNFHLRPRDLISNINVIVLELKGSETTFMCEYADETATIVEFLNRWITFSQSIISTLT
light: B2 light
notes: Anti-CD3 sp34 scFv-Fc knob (EP369), B09 heavy chain hole with K35L R38D F42R IL2 at the C-terminus (EP379), light chain EP289; also called EP369/EP379/EP289
Consider B5, for which the “Jurkat Cell Activation Activity, NFAT reporter EC50” value in assay [3] was 0.044 nM. For the same molecule, the EC50 was 0.042 nM in assay [4] and 1.04 nM in assay [5].

B6: EP500/EP378/EP289 anti-Nectin4/CD3 bispecific antibody (bispecific antibody)
heavy 1: B3 heavy 1 with T381A, R402A, I466E, F468Y, S481G, V485L
heavy 2: not shown
light: B2 light
notes: Bivalent for Nectin4; EP500 carries a humanized SP34 scFv between CH1 and hinge, hole; template of EP695, EP696 and EP697; also called EP500/378/289
For B6, the EC50 in assay [6] is 0.022 nM; in assay [7], 0.234 nM.
